Tested on: Escherichia coli TOP10
Assay: shrunken log2 fold change of peptide-encoding DNA abundance (4.5 h post-induction vs induction); higher = less antimicrobial activity (less host growth inhibition)
Conditions: time post-induction: 4.5 h; library: site-saturation at positions 5, 18, 19, 20
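Further: peptides expressed intracellularly from a pBAD plasmid library in pooled LB shake-flask culture, induced with 0.3% L-arabinose, DNA abundance read by NGS, three biological replicates, DESeq2 with apeglm shrinkage.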

Row | Sequence | shrunken log2 fold change
1 | RRIRTRPPRLPRPRPRPQLIPRP | -0.222
2 | RRIRFRPPRLPRPRPRPDISPRP | -0.216
3 | RRIRARPPRLPRPRPRPSIIPRP | -0.254
4 | RRIRKRPPRLPRPRPRPFTQPRP | -0.332
5 | RRIRRRPPRLPRPRPRPVMMPRP | -0.0277
6 | RRIRPRPPRLPRPRPRPKCQPRP | 0.0931
7 | RRIRQRPPRLPRPRPRPQYMPRP | -0.587
8 | RRIRVRPPRLPRPRPRPGPMPRP | 0.189
9 | RRIRERPPRLPRPRPRPRMRPRP | 0.506
10 | RRIRMRPPRLPRPRPRPVYDPRP | -0.399
11 | RRIRYRPPRLPRPRPRPCIMPRP | -3.3
12 | RRIRNRPPRLPRPRPRPHAWPRP | -0.0119
13 | RRIRERPPRLPRPRPRPLVKPRP | -0.575
14 | RRIRDRPPRLPRPRPRPNDMPRP | -0.104
15 | RRIRWRPPRLPRPRPRPCQIPRP | -0.0592
16 | RRIRHRPPRLPRPRPRPRFAPRP | 0.0665
17 | RRIRDRPPRLPRPRPRPMNAPRP | -0.0396
18 | RRIRNRPPRLPRPRPRPVRMPRP | -0.132
19 | RRIRERPPRLPRPRPRPKVNPRP | -0.389
20 | RRIRPRPPRLPRPRPRPGCAPRP | 1.55
21 | RRIRHRPPRLPRPRPRPWISPRP | -0.0102
22 | RRIRFRPPRLPRPRPRPPLVPRP | 0.23
23 | RRIRARPPRLPRPRPRPQMQPRP | 0.508
24 | RRIRPRPPRLPRPRPRPVNEPRP | -0.00503
25 | RRIRIRPPRLPRPRPRPRCIPRP | -0.44

Row | Sequence | shrunken log2 fold change
26 | RRIRIRPPRLPRPRPRPWIVPRP | -0.157
27 | RRIRKRPPRLPRPRPRPWAHPRP | 4.43
28 | RRIRIRPPRLPRPRPRPWGLPRP | -0.192
29 | RRIRFRPPRLPRPRPRPIVMPRP | -0.731
30 | RRIRYRPPRLPRPRPRPPVTPRP | -0.0969
31 | RRIRQRPPRLPRPRPRPREQPRP | -0.00783
32 | RRIRDRPPRLPRPRPRPSFFPRP | -0.168
33 | RRIRARPPRLPRPRPRPKRPPRP | 1.03
34 | RRIRERPPRLPRPRPRPAFFPRP | 0.00883
35 | RRIRQRPPRLPRPRPRPSWFPRP | -0.323
36 | RRIRPRPPRLPRPRPRPEPIPRP | 0.26
37 | RRIRSRPPRLPRPRPRPSHYPRP | -1.44
38 | RRIRTRPPRLPRPRPRPNCAPRP | -0.254
39 | RRIRSRPPRLPRPRPRPNERPRP | -0.395
40 | RRIRWRPPRLPRPRPRPHVEPRP | -0.042
41 | RRIRFRPPRLPRPRPRPITKPRP | -0.0304
42 | RRIRIRPPRLPRPRPRPSCTPRP | -0.407
43 | RRIRQRPPRLPRPRPRPHTQPRP | 0.0338
44 | RRIRPRPPRLPRPRPRPLNMPRP | -0.432
45 | RRIRLRPPRLPRPRPRPVMFPRP | -0.268
46 | RRIRDRPPRLPRPRPRPCSIPRP | -0.0309
47 | RRIRERPPRLPRPRPRPFNGPRP | -0.145
48 | RRIRIRPPRLPRPRPRPGEDPRP | 0.00101
49 | RRIRSRPPRLPRPRPRPEGSPRP | 0.223
50 | RRIRIRPPRLPRPRPRPGEVPRP | 0.0961

Row | Sequence | shrunken log2 fold change
51 | RRIRRRPPRLPRPRPRPQPFPRP | -0.0201
52 | RRIRMRPPRLPRPRPRPRAFPRP | 0.918
53 | RRIRRRPPRLPRPRPRPCIKPRP | -0.0974
54 | RRIRFRPPRLPRPRPRPMEEPRP | 0.279
55 | RRIRDRPPRLPRPRPRPYDKPRP | -0.149
56 | RRIRARPPRLPRPRPRPHNPPRP | 0.0946
57 | RRIRWRPPRLPRPRPRPTGNPRP | 0.2
58 | RRIRTRPPRLPRPRPRPRSAPRP | 0.0929
59 | RRIRGRPPRLPRPRPRPVVDPRP | 0.873
60 | RRIRNRPPRLPRPRPRPHDVPRP | -0.0113
61 | RRIRWRPPRLPRPRPRPKMYPRP | -0.13
62 | RRIRTRPPRLPRPRPRPVVNPRP | 0.0198
63 | RRIRNRPPRLPRPRPRPLPMPRP | -0.14
64 | RRIRRRPPRLPRPRPRPTWSPRP | 0.519
65 | RRIRGRPPRLPRPRPRPGPRPRP | 1.1
66 | RRIRPRPPRLPRPRPRPRPYPRP | 0.173
67 | RRIRPRPPRLPRPRPRPDGQPRP | 0.204
68 | RRIRQRPPRLPRPRPRPLIHPRP | -0.708
69 | RRIRFRPPRLPRPRPRPWFDPRP | -0.101
70 | RRIRARPPRLPRPRPRPLQLPRP | 0.179
71 | RRIRGRPPRLPRPRPRPNKFPRP | -0.106
72 | RRIRDRPPRLPRPRPRPTHLPRP | -0.175
73 | RRIRNRPPRLPRPRPRPKQDPRP | -0.0415
74 | RRIRPRPPRLPRPRPRPEACPRP | 0.321
75 | RRIRCRPPRLPRPRPRPCVSPRP | -0.0805

Row | Sequence | shrunken log2 fold change
76 | RRIRGRPPRLPRPRPRPPAMPRP | 1.23
77 | RRIRCRPPRLPRPRPRPLAKPRP | 1.69
78 | RRIRSRPPRLPRPRPRPRYFPRP | -0.0823
79 | RRIRHRPPRLPRPRPRPAPNPRP | 0.497
80 | RRIRMRPPRLPRPRPRPCMTPRP | 1.65
81 | RRIRRRPPRLPRPRPRPIFMPRP | 0.294
82 | RRIRRRPPRLPRPRPRPLSQPRP | 0.000673
83 | RRIRMRPPRLPRPRPRPENPPRP | 2.79
84 | RRIRVRPPRLPRPRPRPNFKPRP | -0.0173
85 | RRIRERPPRLPRPRPRPFSTPRP | -0.0931
86 | RRIRARPPRLPRPRPRPQEVPRP | -0.0933
87 | RRIRRRPPRLPRPRPRPYYFPRP | -0.139
88 | RRIRERPPRLPRPRPRPQMFPRP | 0.0221
89 | RRIRFRPPRLPRPRPRPFGHPRP | -0.19
90 | RRIRNRPPRLPRPRPRPQVRPRP | 0.05
91 | RRIRWRPPRLPRPRPRPRQIPRP | 0.459
92 | RRIRTRPPRLPRPRPRPYEFPRP | -0.202
93 | RRIRMRPPRLPRPRPRPTIMPRP | 0.176
94 | RRIRERPPRLPRPRPRPQCYPRP | -0.186
95 | RRIRCRPPRLPRPRPRPTWLPRP | -0.227
96 | RRIRNRPPRLPRPRPRPWIVPRP | 0.0724
97 | RRIRGRPPRLPRPRPRPSFAPRP | 0.723
98 | RRIRNRPPRLPRPRPRPGKMPRP | -0.203
99 | RRIRHRPPRLPRPRPRPNQKPRP | -0.0319
100 | RRIRNRPPRLPRPRPRPYYIPRP | -0.131

Row | Sequence | shrunken log2 fold change
101 | RRIRWRPPRLPRPRPRPTVLPRP | 0.188
102 | RRIRKRPPRLPRPRPRPGCTPRP | 0.517
103 | RRIRARPPRLPRPRPRPSVIPRP | -0.0459
104 | RRIRPRPPRLPRPRPRPLPHPRP | -0.206
105 | RRIRTRPPRLPRPRPRPTISPRP | -0.488
106 | RRIRERPPRLPRPRPRPSIKPRP | -0.755
107 | RRIRIRPPRLPRPRPRPMFFPRP | -0.534
108 | RRIRRRPPRLPRPRPRPCFRPRP | -0.00559
109 | RRIRRRPPRLPRPRPRPPKAPRP | -0.00754
110 | RRIRSRPPRLPRPRPRPQCFPRP | -0.282
111 | RRIRWRPPRLPRPRPRPQKQPRP | 0.184
112 | RRIRVRPPRLPRPRPRPDKMPRP | -0.0822
113 | RRIRIRPPRLPRPRPRPNTNPRP | -0.905
114 | RRIRTRPPRLPRPRPRPNQWPRP | -0.0389
115 | RRIRNRPPRLPRPRPRPAPIPRP | 0.169
116 | RRIRQRPPRLPRPRPRPNLEPRP | -0.136
117 | RRIRPRPPRLPRPRPRPKCLPRP | -0.0739
118 | RRIRERPPRLPRPRPRPAPNPRP | 0.258
119 | RRIRWRPPRLPRPRPRPRCQPRP | -0.0289
120 | RRIRLRPPRLPRPRPRPNAKPRP | -0.0021
121 | RRIRPRPPRLPRPRPRPWFDPRP | -0.278
122 | RRIRFRPPRLPRPRPRPHWDPRP | -0.21
123 | RRIRARPPRLPRPRPRPRERPRP | 0.334
124 | RRIRARPPRLPRPRPRPEPIPRP | 0.716
125 | RRIRRRPPRLPRPRPRPCGLPRP | 0.15

From the supplement of paper PMC9112550, “Optimization of the antimicrobial peptide Bac7 by deep mutational scanning” (BMC Biology, 2022)
